4 molecules from patent EP4786495A1 (Nanjing Leads Biolabs Co., Ltd., dated 2026) can be followed below.

In test [1] the target is human BAFF protein (ACRO Biosystems, Cat. No.: BAF-H52D4) (human, UniProt Q9Y275 134-285). Briefly: BLI Octet RED96e, protein captured on AHC sensor, BAFF 100 nM in solution. (In general: Biolayer interferometry detects binding as a change in optical thickness at a sensor tip.)
Test [2] deals with T1, human APRIL protein (ACRO Biosystems, Cat. No.: APL-H52D1) (human, UniProt O75888 115-250, limits assumed).
T1 sequence (looked up): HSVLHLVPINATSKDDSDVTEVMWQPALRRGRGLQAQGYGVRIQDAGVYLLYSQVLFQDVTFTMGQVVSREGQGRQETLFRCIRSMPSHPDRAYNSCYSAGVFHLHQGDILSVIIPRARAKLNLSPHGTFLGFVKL
Briefly: BLI Octet RED96e, protein captured on AHC sensor, APRIL 100 nM in solution.

The target of test [3] is T2, human BDCA2 protein (Kactus Biosystems, Cat# BCA-HM402) (human, UniProt Q8WTT0 45-213).
T2 construct: also called Human BDCA2-His
T2 sequence: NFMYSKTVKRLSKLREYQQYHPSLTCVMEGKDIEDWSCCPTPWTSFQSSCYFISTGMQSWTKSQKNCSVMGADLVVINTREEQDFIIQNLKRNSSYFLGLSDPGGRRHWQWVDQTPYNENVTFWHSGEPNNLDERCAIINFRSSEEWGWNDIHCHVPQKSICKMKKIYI
The test can be described thus: BLI Octet RED96e, protein captured on AHC sensor, BDCA2 100 nM in solution.

Sequence of human BAFF protein (ACRO Biosystems, Cat. No.: BAF-H52D4) (Q9Y275 134-285 limits assumed): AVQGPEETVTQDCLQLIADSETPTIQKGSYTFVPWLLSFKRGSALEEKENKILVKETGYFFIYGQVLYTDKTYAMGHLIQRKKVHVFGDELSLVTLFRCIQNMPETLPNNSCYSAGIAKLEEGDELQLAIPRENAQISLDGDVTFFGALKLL

B1: bispecific fusion protein BI-9D2-3GS4 (bispecific antibody, human IgG1, kappa)
heavy: not shown
light: ETVLTQSPATLSLSPGERATLSCRASSSVSYMYWFQQKPGQAPRLLIYSTSNLASGIPARFSGSGSGTDYTLTISSLEPEDFAVYYCQQRRNYPHTFGGGTKVEIKRTVAAPSVFIFPPSDEQLKSGTASVVCLLNNFYPREAKVQWKVDNALQSGNSQESVTEQDSKDSTYSLSSTLTLSKADYEKHKVYACEVTHQGLSSPVTKSFNRGEC
For the molecule B1, in test [1], the Kd – broadly, the free concentration of one partner at which half of the binding sites on the other are occupied at equilibrium, for simple one-to-one binding – is under 1 pM; the “Response (nm)” value amounted to 0.34 nm; the off-rate (koff) (commonly a measure of how fast the partners let go of each other) is under 1e-07 s⁻¹; the kon (usually the rate constant with which the complex forms) was determined as 422000 M⁻¹ s⁻¹. In addition, in test [2], the dissociation constant (Kd) worked out at 616 pM, the “Response (nm)” value came to 0.251 nm, the koff was 0.000582 s⁻¹ and the kon is 944000 M⁻¹ s⁻¹. In test [3], the dissociation constant (Kd) came out at 234 pM, the “Response (nm)” value was determined as 0.551 nm, the koff is 3.58e-05 s⁻¹ and the kon turned out to be 153000 M⁻¹ s⁻¹.

B2: bispecific fusion protein BI-9ND2-2GS4 (bispecific antibody, human IgG1, kappa)
heavy: not shown
light: ETVLTQSPATLSLSPGERATLSCRASSSVSYMYWFQQKPGQAPRLLIYSTSNLASGIPARFSGSGSGTDYTLTISSLEPEDFAVYYCQQRRNYPHTFGGGTKVEIKRTVAAPSVFIFPPSDEQLKSGTASVVCLLNNFYPREAKVQWKVDNALQSGNSQESVTEQDSKDSTYSLSSTLTLSKADYEKHKVYACEVTHQGLSSPVTKSFNRGEC
For the molecule B2, in test [1], the dissociation constant (Kd) was under 1 pM, the “Response (nm)” value stood at 0.492 nm, the koff was under 1e-07 s⁻¹ and the kon was found to be 456000 M⁻¹ s⁻¹. In test [2], the equilibrium dissociation constant (Kd) stood at 275 pM, the “Response (nm)” value amounted to 0.339 nm, the koff was 0.000257 s⁻¹ and the on-rate constant (kon) was found to be 937000 M⁻¹ s⁻¹. Moreover, in test [3], the Kd was under 1 pM, the “Response (nm)” value came out at 0.466 nm, the dissociation rate constant (koff) was under 1e-07 s⁻¹ and the on-rate (kon) is 115000 M⁻¹ s⁻¹.

B3: bispecific fusion protein BI-9ND2-4GS4 (bispecific antibody, human IgG1, kappa)
heavy: not shown
light: ETVLTQSPATLSLSPGERATLSCRASSSVSYMYWFQQKPGQAPRLLIYSTSNLASGIPARFSGSGSGTDYTLTISSLEPEDFAVYYCQQRRNYPHTFGGGTKVEIKRTVAAPSVFIFPPSDEQLKSGTASVVCLLNNFYPREAKVQWKVDNALQSGNSQESVTEQDSKDSTYSLSSTLTLSKADYEKHKVYACEVTHQGLSSPVTKSFNRGEC
For the molecule B3, in test [1], the equilibrium dissociation constant (Kd) is under 1 pM, the “Response (nm)” value stood at 0.468 nm, the dissociation rate constant (koff) is under 1e-07 s⁻¹ and the association rate constant (kon) was 522000 M⁻¹ s⁻¹. In test [2], the affinity, expressed as Kd, was 66.7 pM; the “Response (nm)” value is 0.298 nm; the koff worked out at 7.79e-05 s⁻¹; the on-rate constant (kon) worked out at 1.17e+06 M⁻¹ s⁻¹. In addition, in test [3], the Kd is under 1 pM, the “Response (nm)” value amounted to 0.484 nm, the dissociation rate constant (koff) is under 1e-07 s⁻¹ and the on-rate constant (kon) came to 125000 M⁻¹ s⁻¹.

B4: bispecific fusion protein BI-9ND2-3GS4 (bispecific antibody, human IgG1, kappa)
heavy: not shown
light: ETVLTQSPATLSLSPGERATLSCRASSSVSYMYWFQQKPGQAPRLLIYSTSNLASGIPARFSGSGSGTDYTLTISSLEPEDFAVYYCQQRRNYPHTFGGGTKVEIKRTVAAPSVFIFPPSDEQLKSGTASVVCLLNNFYPREAKVQWKVDNALQSGNSQESVTEQDSKDSTYSLSSTLTLSKADYEKHKVYACEVTHQGLSSPVTKSFNRGEC
For the molecule B4, in test [1], the Kd is under 1 pM, the “Response (nm)” value was 0.487 nm, the off-rate (koff) is under 1e-07 s⁻¹ and the kon came to 489000 M⁻¹ s⁻¹. Also, in test [2], the Kd worked out at 94.4 pM, the “Response (nm)” value was 0.327 nm, the koff was determined as 9.99e-05 s⁻¹ and the on-rate constant (kon) was determined as 1.06e+06 M⁻¹ s⁻¹. Also, in test [3], the dissociation constant Kd was under 1 pM, the “Response (nm)” value was 0.473 nm, the koff was under 1e-07 s⁻¹ and the on-rate constant (kon) came out at 117000 M⁻¹ s⁻¹.
